Values quoted from earlier work, collected in article PMC7739374.

Biological target: Sos (Homo sapiens) (UniProt Q07889)

Substance: Ras (from UniProt P01112)
- Kd: 28 µM
